Biological target: fluorescently labeled non-covalent analog of peptide 5 with a non-nucleophilic acetate group on position 133 (UniProt P46937)
Test: fluorescence polarisation

Chain of UniProt P46937 (P46937 whole entry, looked up, tested part not stated): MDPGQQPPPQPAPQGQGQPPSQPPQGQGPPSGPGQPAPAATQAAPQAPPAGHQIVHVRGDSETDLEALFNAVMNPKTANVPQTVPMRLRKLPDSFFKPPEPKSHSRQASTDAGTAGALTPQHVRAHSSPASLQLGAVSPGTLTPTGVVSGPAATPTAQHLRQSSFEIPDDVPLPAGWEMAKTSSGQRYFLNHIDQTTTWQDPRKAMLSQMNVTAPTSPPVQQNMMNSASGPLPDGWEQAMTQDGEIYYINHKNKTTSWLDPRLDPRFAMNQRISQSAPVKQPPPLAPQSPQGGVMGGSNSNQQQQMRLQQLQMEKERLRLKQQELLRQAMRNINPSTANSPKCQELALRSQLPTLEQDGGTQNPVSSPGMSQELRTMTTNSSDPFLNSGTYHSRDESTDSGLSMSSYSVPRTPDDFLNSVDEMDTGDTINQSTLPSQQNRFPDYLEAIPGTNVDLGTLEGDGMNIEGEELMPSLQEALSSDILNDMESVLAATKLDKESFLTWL

- Kd: 0.106 µM
B1: recombinant full-length 14-3-3σ (1–248) (natural protein)
chain: MERASLIQKAKLAEQAERYEDMAAFMKGAVEKGEELSCEERNLLSVAYKNVVGGQRAAWRVLSSIEQKSNEEGSEEKGPEVREYREKVETELQGVCDTVLGLLDSHLIKEAGDAESRVFYLKMKGDYYRYLAEVATGDDKKRIIDSARSAYQEAMDISKKEMPPTNPIRLGLALNFSVFHYEIANSPEEAISLAKTTFDEAMADLHTLSEDSYKDSTLIMQLLRDNLTLWTADNAGEEGGEAPQEPQS
